Results taken from patent US20040018971A1 (published 2004).
One block for each binder: values may come before it.

What was measured:
HLA-B*0702 = HLA-B*0702 (human); assay: competition vs 125I-labeled standard peptide, purified HLA
HLA-B*5301 = HLA-B*5301 (human); assay: as above
HLA-B*5401 = HLA-B*5401 (human); assay: as above
HLA-B*5101 = HLA-B*5101 (human); assay: as above
HLA-B*3501 = HLA-B*3501 (human); assay: as above
HLA-A*1101 [1] = molecular target: HLA-A*1101 (human); assay: inhibition of 125I-labelled probe peptide binding to purified HLA-A*1101, gel filtration; relative to standard peptide 940.06
HLA-A*0301 [2] = molecular target: T1, HLA-A*0301 (human); assay: inhibition of 125I-labelled probe peptide binding to purified HLA-A*0301, gel filtration; ratio to standard peptide 941.12 ([..], 11 nM)
T1 construct: also called HLA-A3

HLA-A*3101 = HLA-A*3101 (human); assay: inhibition of 125I probe peptide binding to purified HLA
HLA-A*0301 [3] = molecular target: HLA-A*0301 (human); assay: as above
HLA-A*6801 = HLA-A*6801 (human); assay: as above
HLA-A*1101 [4] = molecular target: HLA-A*1101 (human); assay: competitive inhibition of 125I-labeled probe peptide binding to purified HLA-A*1101, gel filtration

relative binding ratio (HLA-A*1101 [1]): 0.0014 ratio (IC50 of standard peptide / IC50 of test peptide)
Binder: LVHRDLAAR (also called HER2/neu 841-849) [HER2/neu A11 motif peptide, position 841, 9 amino acids]

relative binding ratio (HLA-A*1101 [1]): 0.0007 ratio (IC50 of standard peptide / IC50 of test peptide)
B2: HER2/neu A11 motif peptide, position 745, 10 amino acids (peptide)
peptide: NVKIPVAIKV
notes: Built as this row prints it (length 10); also called HER2/neu 745-754

IC50 (HLA-B*0702): 2 nM
IC50 (HLA-B*5301): 1520 nM
IC50 (HLA-B*5401): 91 nM
IC50 (HLA-B*5101): 71 nM
IC50 (HLA-B*3501): 16 nM
B3: Her2/neu.698.F1 (peptide)
peptide: FPLTPSGAM
notes: 9-mer analog of the HER2/neu peptide starting at position 698

relative binding ratio (HLA-A*1101 [4]): 0.0001 ratio (IC50 of standard peptide / IC50 of test peptide)
Binder: CLLDHVRENR [HER2/neu peptide, position 805, 10 amino acids]

IC50 (HLA-B*0702): 112 nM
IC50 (HLA-B*5301): 358 nM
IC50 (HLA-B*5401): 9.1 nM
IC50 (HLA-B*5101): 7.9 nM
IC50 (HLA-B*3501): 3600 nM
B4: Her2/neu.779.F1, 10-mer (peptide)
peptide: FPYVSRLLGI
notes: 10-mer analog of the HER2/neu peptide starting at position 779; same label as the 8-mer in r55

IC50 (HLA-B*0702): 423 nM
IC50 (HLA-B*5301): 6200 nM
IC50 (HLA-B*5401): 1 nM
IC50 (HLA-B*5101): 157 nM
IC50 (HLA-B*3501): 206 nM
B5: Her2/neu.921.F1 (peptide)
peptide: FPYDGIPA
notes: 8-mer analog of the HER2/neu peptide starting at position 921

IC50 (HLA-B*0702): 177 nM
IC50 (HLA-B*5301): 344 nM
IC50 (HLA-B*5401): 56 nM
IC50 (HLA-B*5101): 10 nM
IC50 (HLA-B*3501): 379 nM
B6: Her2/neu.921.F1I8 (peptide)
peptide: FPYDGIPI
notes: as for B5

IC50 (HLA-B*0702): 229 nM
IC50 (HLA-B*5301): 775 nM
IC50 (HLA-B*5401): 100 nM
IC50 (HLA-B*5101): 131 nM
IC50 (HLA-B*3501): 6550 nM
B9: Her2/neu.701.F1 (peptide)
peptide: FPSGAMPNQI
notes: the label names only F1 though the C-terminus is I

relative binding ratio (HLA-A*1101 [4]): 0.01 ratio (IC50 of standard peptide / IC50 of test peptide)
Binder: DLSYMPIWK [HER2/neu peptide, position 607, 9 amino acids]

relative binding ratio (HLA-A*1101 [4]): 0.0042 ratio (IC50 of standard peptide / IC50 of test peptide)
Binder: CVARCPSGVK [HER2/neu peptide, position 596, 10 amino acids]

relative binding ratio (HLA-A*1101 [1]): 0.0001 ratio (IC50 of standard peptide / IC50 of test peptide)
Binder: PASPLDSTFY (also called HER2/neu 996-1005) [HER2/neu A11 motif peptide, position 996, 10 amino acids]

relative binding ratio (HLA-A*1101 [1]): 0.052 ratio (IC50 of standard peptide / IC50 of test peptide)
Binder: QVCTGTDMK (also called HER2/neu 24-32) [HER2/neu A11 motif peptide, position 24, 9 amino acids]

Second part, the binder before the results:

B1: Her2/neu.642.F1 (peptide)
peptide: FPAEQRASPL
notes: 10-mer analog of the HER2/neu peptide starting at position 642
IC50 (HLA-B*0702): 1.4 nM
IC50 (HLA-B*5301): 8460 nM
IC50 (HLA-B*5401): 286 nM
IC50 (HLA-B*5101): 859 nM
IC50 (HLA-B*3501): 248 nM

Binder: FSRMARDPQR [HER2/neu peptide, position 976, 10 amino acids]
relative binding ratio (IC50 of standard peptide / IC50 of test peptide) (HLA-A*0301 [2]): -0.0002

Binder: RTVCAGGCAR (synthetic peptide) [Her2/neu.217]
IC50 (HLA-A*3101): 40 nM
IC50 (HLA-A*0301 [3]): 1620 nM
IC50 (HLA-A*6801): 320 nM

Binder: PSGVKPDLSY (also called HER2/neu 601-610) [HER2/neu A11 motif peptide, position 601, 10 amino acids]
relative binding ratio (HLA-A*1101 [1]): 0.0003 ratio (IC50 of standard peptide / IC50 of test peptide)

B7: Her2/neu.884.F1I8 (peptide)
peptide: FPIKWMAI
notes: 8-mer analog of the HER2/neu peptide starting at position 884
IC50 (HLA-B*0702): 22 nM
IC50 (HLA-B*5301): 930 nM
IC50 (HLA-B*5401): 33 nM
IC50 (HLA-B*5101): 122 nM
IC50 (HLA-B*3501): 1140 nM

B8: Her2/neu.884.F1 (peptide)
peptide: FPIKWMAL
notes: 8-mer analog of the HER2/neu peptide starting at position 884; also called FPIKWMAL
IC50 (HLA-B*0702): 0.6 nM
IC50 (HLA-B*5301): 547 nM
IC50 (HLA-B*5401): 40 nM
IC50 (HLA-B*5101): 306 nM
IC50 (HLA-B*3501): 248 nM

Binder: QLVTQLMPY (also called HER2/neu 795-803) [HER2/neu A11 motif peptide, position 795, 9 amino acids]
relative binding ratio (HLA-A*1101 [1]): 0.0039 ratio (IC50 of standard peptide / IC50 of test peptide)

Binder: PLTCSPQPEY [HER2/neu A11 motif peptide, position 1130, 10 amino acids]
relative binding ratio (HLA-A*1101 [1]): 0.0002 ratio (IC50 of standard peptide / IC50 of test peptide)

Binder: CVNCSQFLR (also called Her2/neu.528) [HER2/neu peptide, position 528, 9 amino acids]
relative binding ratio (HLA-A*1101 [4]): 0.031 ratio (IC50 of standard peptide / IC50 of test peptide)

B10: Her2/neu.649.F1I9 (peptide)
peptide: FPLTSIISI
notes: 9-mer analog of the HER2/neu peptide starting at position 649
IC50 (HLA-B*0702): 212 nM
IC50 (HLA-B*5301): 28 nM
IC50 (HLA-B*5401): 1.5 nM
IC50 (HLA-B*3501): 118 nM

B11: Her2/neu.649.F1, 9-mer (peptide)
peptide: FPLTSIISA
notes: 9-mer analog of the HER2/neu peptide starting at position 649; same label as the 10-mer in r43
IC50 (HLA-B*0702): 290 nM
IC50 (HLA-B*5301): 3000 nM
IC50 (HLA-B*5401): 1.4 nM
IC50 (HLA-B*5101): 663 nM
IC50 (HLA-B*3501): 21 nM

Binder: CSKPCARVCY [HER2/neu peptide, position 334, 10 amino acids]
relative binding ratio (HLA-A*1101 [4]): 0.0002 ratio (IC50 of standard peptide / IC50 of test peptide)

Binder: DVRPQPPSPR [HER2/neu peptide, position 1144, 10 amino acids]
relative binding ratio (HLA-A*1101 [4]): 0.0001 ratio (IC50 of standard peptide / IC50 of test peptide)

Binder: MIDSECRPR [HER2/neu A11 motif peptide, position 960, 9 amino acids]
relative binding ratio (HLA-A*1101 [1]): 0.0006 ratio (IC50 of standard peptide / IC50 of test peptide)

Binder: PTHDPSPLQR (also called HER2/neu 1102-1111) [HER2/neu A11 motif peptide, position 1102, 10 amino acids]
relative binding ratio (HLA-A*1101 [1]): 0.0001 ratio (IC50 of standard peptide / IC50 of test peptide)
